Test [1] has as its system Leptin-deficient ob/ob mice. Description: metabolic phenotype and glucose homeostasis of treated ob/ob mice. Type of test: in vivo, mouse. As to conditions: FGF15 treatment for 2 weeks. As for the experimental part: Leptin-deficient ob/ob mice were purchased from Jackson laboratory (stock no. 000632). Each mouse consumed 100 mg per kg of body weight Fex (in corn oil) per day by oral gavage for 5 weeks. For in vivo analog study, each mouse consumed 50 mg per kg of body weight Fex-D (in corn oil) per day by oral gavage for 14 days. For GLP-1 receptor antagonist study, each mouse was daily treated with 100 μg per kg of body weight Exendin 9-39 amide (Abcam) via intraperitoneal injection for 2 weeks. For INT-777 study, each mouse was daily gavaged with 60 mg per kg of body weight INT-777 (in corn oil) for 5 weeks. […] Core body temperature was measured with a clinical rectal thermometer (Thermalert model TH-5; Physitemp). […] Tail blood was drawn at indicated time intervals, and blood glucose level was measured with a One Touch Ultra glucometer (LifeScan). Body composition was measured with Echo MRI-100 body composition analyzer (Echo Medical Systems). […]
Real-time metabolic analyses were conducted in a Comprehensive Lab Animal Monitoring System (Columbus Instruments). CO2 production, O2 consumption, RQ (relative rates of carbohydrate versus fat oxidation) and ambulatory counts were determined for 4 consecutive days and nights, with at least 24-h for adaptation before data recording. […]

The next test relates to isolated islets. Description: gene expression after direct ex vivo treatment of isolated islets. Type of test: cell-based, mouse. Conditions: 24 hours ex vivo, XL335 1 μM, Fex 1 μM. As for the experimental part: Leptin-deficient ob/ob mice were treated daily with vehicle, Fex, or the analogue Fex-D (50 mg/kg) via P.O. for 14 days (A) Chemical structures of fexaramine and Fex-D (B) Schematic of the experimental design (C) Serum glucose levels (D) Glucose tolerance test (E) Insulin secretion in vivo (F) GLP-1 secretion in vivo (G) Heatmap showing hierarchal clustering of gene expression changes in islet induced by Fex (100 mg/kg, 4 wks) and FexD (50 mg/kg, 2 weeks) treatment in ob/ob mice (in vivo); by treatment of islets with XL335 (1 μM), Fex (1 μM), mFgf15 and hFgf19 (24 hours ex vivo); and mFgf15 (0.15 mg/kg, 2 weeks) and INT777 (Tgr5, 60 mg/kg, 4 weeks) treatment of ob/ob mice (in vivo). Gene expression was measured by RNA-Seq and changes are expressed as Z-score. (H) Ven diagram of changes in gene expression in pancreatic islets induced by FEX (100 mg/kg for 5 weeks) and FEX-D (50 mg/kg for 14 days). […] Data represent the mean±STD. Statistical analysis was performed with the Student's t test. *p<0.05, **p<0.01.
Next, primary islets were isolated from mice treated by Fex-D to compare gene expression changes.

In another test the test system is ob/ob mice. Description: gene expression (RNA-Seq, QPCR) in tissues of treated ob/ob mice. The test is classed as in vivo, mouse. As to conditions: FGF15 injection. On the procedure:
Total RNA was isolated from cell pellets treated with RNAlater using the RNA mini kit (Qiagen) and treated with DNaseI (Qiagen) for 30 minutes at room temperature. Sequencing libraries were prepared from 100-500 ng total RNA using the TruSeq RNA Sample Preparation Kit v2 (Illumina) according to the manufacturer's protocol. Briefly, mRNA was purified, fragmented, and used for first-, then second-strand cDNA synthesis followed by adenylation of 3′ ends. Samples were ligated to unique adapters and subjected to PCR amplification. Mulitplexed libraries were then validated using the 2100 BioAnalyzer (Agilent), normalized, and pooled for sequencing. RNA-Seq libraries prepared from two biological replicates for each experimental condition were sequenced on the Illumina HiSeq 2500 using bar-coded multiplexing and a 100 bp read length.
Image analysis and base calling were performed with Illumina CASAVA-1.8.2. This yielded a median of 29.9M usable reads per sample. Short read sequences were mapped to a UCSC mm9 reference sequence using the RNA-seq aligner STAR. Known splice junctions from mm9 were supplied to the aligner and de novo junction discovery was also permitted. […] Transcript expression was calculated as gene-level relative abundance in fragments per kilobase of exon model per million mapped fragments and employed correction for transcript abundance bias. […]

B1: FGF15: FGF15 protein injected in ob/ob mice or applied to islets (protein, UniProt O35622 26-218, looked up)
Fibroblast growth factor 15: RPLAQQSQSVSDEDPLFLYGWGKITRLQYLYSAGPYVSNCFLRIRSDGSVDCEEDQNERNLLEFRAVALKTIAIKDVSSVRYLCMSADGKIYGLIRYSEEDCTFREEMDCLGYNQYRSMKHHLHIIFIQAKPREQLQDQKPSNFIPVFHRSFFETGDQLRSKMFSLPLESDSMDPFRMVEDVDHLVKSPSFQK
As to B1, in test [1], the blood glucose levels result was “significantly reduced”. Also, the “glucose uptake in the skeletal muscle” value in test [1] (soleus) is “without affecting”. For the same molecule, the “transcriptional changes seen in islets in vivo with Fex and Fex-D” value in the test with isolated islets was “not observed”. The “reg family gene expression in islets” value in the test on ob/ob mice was “upregulated”.

Values taken from patent US20180000768A1, “INTESTINAL FXR AGONISM ENHANCES GLP-1 SIGNALING TO RESTORE PANCREATIC BETA CELL FUNCTIONS” (Salk Institute for Biological Studies, priority 2015, published 2018).
